Results as given in patent publication US20260231954A1, “PESTICIDAL ENZYMES FOR USE ON NEMATODES, INSECTS, AND MOLLUSKS” (priority 2023, published 2026).

B1: Esterase B (SEQ ID NO: 89): Bacillus subtilis Esterase (EstB without signal sequence) (protein, listed as Bacillus subtilis)
chain: ESVHNPVVLVHGISGASYNFFAIKNYLISQGWQSNKLYAIDFYDKTGNNLNNGPQLASYVDRVLKETGAKKVDIVAHSMGGANTLYYIKYLGGGNKIQNVVTLGGANGLVSSTALPGTDPNQKILYTSIYSLNDQIVINSLSRLQGARNIQLYGIGHIGLLSNSQVNGYIKEGLNGGGLNTN
modifications: Esterase (EstB H191 without signal sequence)
B2: Chitinase 19F (SEQ ID NO: 182): Streptomyces coelicolor Chitinase F (Chi19F) (protein)
chain: ASCSSYHAWSADANYNTGDIVRYTDGKAYIAEHANPGYDPLISTWYWDPYACDGGSQTPVGNFVVSEAQFNQMFPGRNSFYTYSGLTAALSAYPGFANTGSDTTKKQEAAAFLANVSHETGGLVYIVEQNTANYPHYCDWNQPYGCPAGQAAYYGRGPIQLSWNFNYKAAGDALGIDLLGNPWLVQNDAAVAWKTGLWYWNTQSGPGTMTPHNAMVNGAGFGQTIRSINGSLECDGKNPAQVQSRVTKYQQFAQILGVSPGGNLYC
modifications: Chitinase F (Chi19F); Streptomyces coelicolor

Legend:
[1] = test system: Diamondback moth (Plutella xylostella); assay: Diet-surface overlay (DSO) bioassay on Diamondback moth; assay type: in vivo
Description: (§1) Diet-surface overlay bioassays are conducted with artificial diet mixes without antibiotics in 1.5 cm^2 cell bioassay trays(s). Artificial diets are commercially available from Southland Products Inc. Diets were prepared by dispersing 0.5 mL of molten diet to each 1.5 cm^2 cell. After solidification, 0.1 mL enzyme treatments were dispersed on top of diet in each cell and the tray was gently rocked in an orbital shaker to spread the liquid uniformly over the diet surface. Trays were placed under clean airflow until the surface of each cell was uniformly dried. One or two 16-cell sections were used per treatment (the number in larvae treated was 16 or 32).
(§2) One healthy first instar larva was placed into each treatment cell, each 16-cell section was covered with a re-sealable lid and incubated at 27° C. and light-dark period of 16:8 hrs. After 7 days, and according to the species, the number of individuals in the following developmental categories was recorded.
(§3) Diamondback moth (Plutella xylostella): Dead Larva (lack of movement), Larva Stage I (≤50% relative size), Larva Stage II (100% relative size, full size), Early Pupa (light green color), Late Pupa (light-dark brown color), and Adult.
(§4) Negative/untreated controls were treated with filtered water and positive controls were treated with lethal doses of Bacillus thuringiensis subsp. Kurstaki (Btk) spores at 1000 ppm.

[2] = test system: Steinernema feltiae; assay: In-vitro plate assay of Steinernema feltiae juvenile death after direct treatment; assay type: in vivo; conditions: Table 23, 40 μL per well (ILEVO 20 μL), water control 3%
Description: To determine the effects of enzymes on an additional soil-dwelling nematode species (Steinernema feltiae), a NemAttack™ package containing approximately 5 million S. feltiae juveniles was purchased from ARBICO Organics. The nematodes arrived already hatched and dispersed within a powder. To prepare the nematodes for use, an aliquot of the dry nematode mixture was rehydrated in water. The liquid nematode mixture was adjusted to a concentration of 20-30 nematode juveniles per 10 μL. The free enzymes Esterase B (SEQ ID NO: 89) and Chitinase 19F (SEQ ID NO: 182) were produced as described in Example 2.
Potato dextrose agar media containing chloramphenicol and chlortetracycline was prepared and added to sterile twenty-four-well cell culture plates (1 mL per well). The plates were divided according to the pre-determined N-value for each treatment (N=12-24). […]
To quantify the treatments' effects on nematode viability, the nematodes were examined under a dissecting microscope at 20× magnification. Initial (T0) values for the number of live juveniles, number of dead juveniles and total number of juveniles were recorded immediately after preparation of each well. […] Approximately 20-22 hours post addition of juveniles, the plates were evaluated, and the number of live juveniles, dead juveniles and total number of juveniles were recorded. […]

[3] = test system: SCN nematodes; assay: Nematode death after foliar spray application on strawberry leaf segments; assay type: in vivo, Heterodera glycines; conditions: 0.6% solution of fermentation broth sprayed on strawberry leaf segments; 20 wells; water only 5%
Description: To determine whether a nematicidal enzyme can cause nematode death when sprayed as a foliar treatment, a trial was performed using chitinase 19F (SEQ ID NO: 182). The free enzyme was produced as described in Example 2. A SCN hatchery was set up as described in Example 2, except that no bleach sterilization step was performed. Six days later, the concentration of hatched nematodes was determined. Leaves from Quinault strawberry plants (Fragaria x ananassa) were cut into square sections and placed in the wells of a 24-well plate with the abaxial side up. […] Spray solutions were created with water alone and water plus fermentation broth with chitinase 19F (SEQ ID NO: 182). For the base strain control and chitinase solutions, 0.094 mL of fermentation broth was added to 15 mL of water (0.6% solution) to model a field spray application of 8 fl oz. per acre. Treatments were added to a small spray bottle and each leaf segment was sprayed approximately 3 times. After the leaves had dried, approximately 100 nematodes were added to each leaf segment. To assess the number of nematodes that were alive at the start of the experiment hours, 500 μL of sterile water was added to 4 wells of each treatment, and the leaf segment was washed and removed. The number of alive and dead nematodes were counted for each well, and the average percentage of dead nematodes were calculated for each treatment. […]

[4] = test system: Btk resistant Diamondback moth; assay: Diet-surface overlay (DSO) bioassay on Btk resistant Diamondback moth; assay type: in vivo, Plutella xylostella; conditions: number of individuals, n = 32, 7 days
Description: as §1, §2, §3, §4
However, both neutral proteases reduced the number of individuals reaching adult stage.
The effect of lipase (10× enzyme rate) and free lipases were tested on a Diamondback Moth Btk resistant strain. Free Lipases from Burkholderia cepacia (Bc) and Pseudomonas fluorescens (Pf) were tested along with Lipase (SEQ ID NO: 76) and the results are shown below in Table 45.

[5] = Table 49, esterases, Diamondback moth, number of individuals of n = 32

Row | Molecule | Adult [1, 5] | Early Pupa [1, 5] | Larva Stage I [1, 5] | Larva Stage II [1, 5] | Late Pupa [1, 5] | Dead Larva ([1]; Table 49, esterases, Diamondback moth, number of individuals of n = 32, DSO bioassay, dose per treatment in U/mL Diet) | individuals with delayed larva-pupa development ([1]; text to Table 49, esterases, n = 32) | individuals at larva stage ([1]; text to Table 49: 34% of which were at larva stage) | Difference in Percent Death of Nematodes for 0 to 20 Hours [2] | Difference in Percent Death of Nematodes for 0 to 20 Hours ([2]; listed as Esterase B(SEQ ID NO: 89)) | Average percentage of dead nematodes at 24 hours [3] | Dead Larva ([4]; Table 47, chitinases, rate in mU/mL diet column) | Adult ([4]; Table 47) | Early Pupa ([4]; Table 47) | Larva Stage I ([4]; Table 47) | Larva Stage II ([4]; Table 47) | Late Pupa ([4]; Table 47)
1 | B1 | 0 | 4 | 3 | 8 | 17 | 0 | 47% | 34% | significantly increased the difference in percentage of S. feltiae juveniles that died | 33% | – | – | – | – | – | – | –
2 | B2 | – | – | – | – | – | – | – | – | – | – | increased significantly above the control treatments | 2 | 1 | 4 | 2 | 1 | 22
